Assay results taken from patent US5972608.

Key:
[1] = test system: SalI restriction endonuclease; assay: cleavage_in_vitro; details: 125 mM NaCl
[2] = test system: SWI/SNF complex (Saccharomyces cerevisiae); assay: cleavage_in_vitro; details: kcat of nucleosome remodeling, SalI-coupled; 1 mM ATP, 125 mM NaCl, 2.5 mM MgCl2; no stimulation without ATP or with ATPgS

Substance: 11-mer 5S SalI array template (pCL7c)
- activity ([1]; naked DNA, 2.5 mM MgCl2, 37 C, +/-0.03e-4): 0.000286 U^-1 min^-1

Substance: 11-mer 5S SalI nucleosome array (pCL7c template with histone octamers)
- activity [2]: 0.22 min⁻¹
- activity ([1]; second slow phase, nucleosomal DNA, Kconf 3.2e-3, 2.5 mM MgCl2): 9.19e-07 U^-1 min^-1
